Test results: US20100021490A1 (INSTITUT NATIONAL DE LA RECHERCHE AGRONOMIQUE INRA, published 2010)

Target: T1, N protein of measles virus (Edmonston B strain) (measles virus, Edmonston B strain, UniProt P0DXN6 1-525, limits assumed)
T1 construct: The construct is not described; also called measles virus N protein
T1 sequence: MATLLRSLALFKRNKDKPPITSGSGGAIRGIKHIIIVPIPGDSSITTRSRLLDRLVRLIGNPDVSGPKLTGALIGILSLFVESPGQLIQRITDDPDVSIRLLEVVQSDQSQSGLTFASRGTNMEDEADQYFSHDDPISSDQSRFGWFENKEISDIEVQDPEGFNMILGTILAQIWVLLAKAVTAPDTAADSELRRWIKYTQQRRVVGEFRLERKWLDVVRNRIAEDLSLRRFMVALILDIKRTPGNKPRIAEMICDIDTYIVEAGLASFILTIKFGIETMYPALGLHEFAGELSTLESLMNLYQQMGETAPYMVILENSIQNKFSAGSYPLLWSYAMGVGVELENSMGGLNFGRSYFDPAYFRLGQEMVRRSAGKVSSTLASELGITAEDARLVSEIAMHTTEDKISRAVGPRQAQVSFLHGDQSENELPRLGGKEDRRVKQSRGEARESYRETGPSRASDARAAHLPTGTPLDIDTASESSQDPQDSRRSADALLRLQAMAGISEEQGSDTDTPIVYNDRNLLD
Assay: coexpression of the P fragment with N, co-purification

B1: PΔ457N (C-terminal fragment of the measles virus P protein with the N-terminal portion deleted up to residue 456 inclusive) (other, not shown: a dimerising Fc or GST)
chain: GPASRSVIRSIIKSSRLEEDRKRYLMTLLDDIKGANDLAKFHQMLMKIIMK
notes: also called measles PΔ457N
binding result: no binding
